The values below are quoted from earlier work in PMC3283658.

pKd: −log10 of the molar value.

This data set has as its target IL-15Rβγ (Homo sapiens) (UniProt P14784).
Sequence of UniProt P14784 (P14784 27-240, chain 1 of 2): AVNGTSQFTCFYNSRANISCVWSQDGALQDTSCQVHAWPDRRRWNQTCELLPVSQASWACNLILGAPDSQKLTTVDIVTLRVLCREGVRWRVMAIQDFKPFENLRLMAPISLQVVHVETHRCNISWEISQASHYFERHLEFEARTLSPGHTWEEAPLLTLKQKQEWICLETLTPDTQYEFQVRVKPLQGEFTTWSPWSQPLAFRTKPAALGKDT
Sequence of UniProt P14784 (P31785 23-262, chain 2 of 2, further chain): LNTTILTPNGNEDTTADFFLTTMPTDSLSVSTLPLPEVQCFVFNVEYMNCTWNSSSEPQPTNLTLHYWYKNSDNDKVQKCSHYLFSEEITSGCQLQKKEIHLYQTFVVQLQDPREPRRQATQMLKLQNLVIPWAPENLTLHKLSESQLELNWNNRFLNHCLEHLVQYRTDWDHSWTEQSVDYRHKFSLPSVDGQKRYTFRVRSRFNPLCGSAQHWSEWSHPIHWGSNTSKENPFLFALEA

For the substance IL-15 (from UniProt P40933), the pKd (usually the Kd on a negative log10 scale, so that one unit is a factor of ten) is 8.40.
